From patent US7442159

Legend:
[1] = target: Stoffel fragment of Thermus aquaticus DNA polymerase I fused to p3, displayed on phage (pHEN1-Stoffel) (Thermus aquaticus; filamentous bacteriophage) (UniProt P19821); assay: phage ELISA, plate coated with anti-Taq antibody, anti-M13-HRP detection; 10^7 phage particles of clone 10 (selected leader)
[2] = target: Stoffel fragment of Thermus aquaticus DNA polymerase I fused to p3, displayed on phage (pHEN1-Stoffel) (Thermus aquaticus; filamentous bacteriophage) (UniProt P19821); assay: phage ELISA, plate coated with anti-Taq antibody, anti-M13-HRP detection; 10^9 phage particles of the pelB leader phagemid pHEN1-Stoffel

Sequence of UniProt P19821 (P19821 290-832 limits assumed): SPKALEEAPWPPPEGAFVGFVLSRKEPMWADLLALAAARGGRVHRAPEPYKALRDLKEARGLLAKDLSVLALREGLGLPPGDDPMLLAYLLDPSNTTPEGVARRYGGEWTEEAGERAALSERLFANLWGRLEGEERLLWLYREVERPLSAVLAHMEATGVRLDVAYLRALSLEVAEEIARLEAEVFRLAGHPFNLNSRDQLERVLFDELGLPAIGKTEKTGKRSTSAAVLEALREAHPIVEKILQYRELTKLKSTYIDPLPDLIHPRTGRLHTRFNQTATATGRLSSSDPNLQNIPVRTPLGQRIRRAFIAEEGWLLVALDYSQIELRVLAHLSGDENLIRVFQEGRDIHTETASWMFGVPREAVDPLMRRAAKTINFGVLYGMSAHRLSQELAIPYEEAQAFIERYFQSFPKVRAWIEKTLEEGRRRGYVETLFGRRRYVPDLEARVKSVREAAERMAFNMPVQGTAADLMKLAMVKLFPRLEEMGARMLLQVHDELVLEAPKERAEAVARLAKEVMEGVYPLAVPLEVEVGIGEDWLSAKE

- signal to noise ratio [1]: 1.47
- signal to noise ratio [2]: 1.46
Substance: anti-Taq antibody (Taqstart, Clontech)
